Experimental findings from patent US20090263375A1 (WISCONSIN ALUMNI RESEARCH FOUNDATION, published 2009) are described below.

B1: Flag-Star-PAP (full length) (enzyme)
chain: MAAVDSDVESLPRGGFRCCLCHVTTANRPSLDAHLGGRKHRHLVELRAARKAQGLRSVFVSGFPRGVDSAQLSEYFLAFGPVASVVMDKDKGVFAIVEMGDVGAREAVLSQSQHSLGGHRLRVRPREQKEFQSPASKSPKGAAPDSHQLAKALAEAADVGAQMIKLVGLRELSEAERQLRSLVVALMQEVFTEFFPGCVVHPFGSSINSFDVHGCDLDLFLDLGDLEEPQPVPKAPESPSLDSALASPLDPQALACTPASPPDSQPPASPQDSEALDFETPSSSLAPQTPDSALASETLASPQSLPPASPLLEDREEGDLGKASELAETPKEEKAEGAAMLELVGSILRGCVPGVYRVQTVPSARRPVVKFCHRPSGLHGDVSLSNRLALHNSRFLSLCSELDGRVRPLVYTLRCWAQGRGLSGSGPLLSNYALTLLVIYFLQTRDPPVLPTVSQLTQKAGEGEQVEVDGWDCSFPRDASRLEPSINVEPLSSLLAQFFSCVSCWDLRGSLLSLREGQALPVAGGLPSNLWEGLRLGPLNLQDPFDLSHNVAANVTSRVAGRLQNCCRAAANYCRSLQYQRRSSRGRDWGLLPLLQPSSPSSLLSATPIPLPLAPFTQLTAALVQVFREALGCHIEQATKRTRSEGGGTGESSQGGTSKRLKVDGQKNCCEEGKEEQQGCAGDGGEDRVEEMVIEVGEMVQDWAMQSPGQPGDLPLTTGKHGAPGEEGQPSHAALAERGPKGHEAAQEWSQGEAGKGASLPSSASWRCALWHRVWQGRRRARRRLQQQTKEGAGGGAGTRAGWLATEAQVTQELKGLSGGEERPETEPLLSFVASVSPADRMLTVTPLQDPQGLFPDLHHFLQVFLPQAIRHLK
notes: Expressed in HEK 293 cells and purified on anti-FLAG M2 resin together with its associated complex; also called Flag tagged Star-PAP; full-length Star-PAP; not shown: FLAG tag
B2: Flag-PAPα (canonical poly(A) polymerase) (enzyme)
chain: MPFPVTTQGSQQTQPPQKHYGITSPISLAAPKETDCVLTQKLIETLKPFGVFEEEEELQRRILILGKLNNLVKEWIREISESKNLPQSVIENVGGKIFTFGSYRLGVHTKGADIDALCVAPRHVDRSDFFTSFYDKLKLQEEVKDLRAVEEAFVPVIKLCFDGIEIDILFARLALQTIPEDLDLRDDSLLKNLDIRCIRSLNGCRVTDEILHLVPNIDNFRLTLRAIKLWAKRHNIYSNILGFLGGVSWAMLVARTCQLYPNAIASTLVHKFFLVFSKWEWPNPVLLKQPEECNLNLPVWDPRVNPSDRYHLMPIITPAYPQQNSTYNVSVSTRMVMVEEFKQGLAITDEILLSKAEWSKLFEAPNFFQKYKHYIVLLASAPTEKQRLEWVGLVESKIRILVGSLEKNEFITLAHVNPQSFPAPKENPDKEEFRTMWVIGLVFKKTENSENLSVDLTYDIQSFTDTVYRQAINSKMFEVDMKIAAMHVKRKQLHQLLPNHVLQKKKKHSTEGVKLTALNDSSLDLSMDSDNSMSVPSPTSATKTSPLNSSGSSQGRNSPAPAVTAASVTNIQATEVSVPQVNSSESSGGTSSESIPQTATQPAISPPPKPTVSRVVSSTRLVNPPPRSSGNAATSGNAATKIPTPIVGVKRTSSPHKEESPKKTKTEEDETSEDANCLALSGHDKTEAKEQLDTETSTTQSETIQTAASLLASQKTSSTDLSDIPALPANPIPVIKNSIKLRLNR
notes: not shown: FLAG tag

One experiment concerns the target T1, Symplekin (human, UniProt Q92797 1-1274).
T1 sequence (looked up): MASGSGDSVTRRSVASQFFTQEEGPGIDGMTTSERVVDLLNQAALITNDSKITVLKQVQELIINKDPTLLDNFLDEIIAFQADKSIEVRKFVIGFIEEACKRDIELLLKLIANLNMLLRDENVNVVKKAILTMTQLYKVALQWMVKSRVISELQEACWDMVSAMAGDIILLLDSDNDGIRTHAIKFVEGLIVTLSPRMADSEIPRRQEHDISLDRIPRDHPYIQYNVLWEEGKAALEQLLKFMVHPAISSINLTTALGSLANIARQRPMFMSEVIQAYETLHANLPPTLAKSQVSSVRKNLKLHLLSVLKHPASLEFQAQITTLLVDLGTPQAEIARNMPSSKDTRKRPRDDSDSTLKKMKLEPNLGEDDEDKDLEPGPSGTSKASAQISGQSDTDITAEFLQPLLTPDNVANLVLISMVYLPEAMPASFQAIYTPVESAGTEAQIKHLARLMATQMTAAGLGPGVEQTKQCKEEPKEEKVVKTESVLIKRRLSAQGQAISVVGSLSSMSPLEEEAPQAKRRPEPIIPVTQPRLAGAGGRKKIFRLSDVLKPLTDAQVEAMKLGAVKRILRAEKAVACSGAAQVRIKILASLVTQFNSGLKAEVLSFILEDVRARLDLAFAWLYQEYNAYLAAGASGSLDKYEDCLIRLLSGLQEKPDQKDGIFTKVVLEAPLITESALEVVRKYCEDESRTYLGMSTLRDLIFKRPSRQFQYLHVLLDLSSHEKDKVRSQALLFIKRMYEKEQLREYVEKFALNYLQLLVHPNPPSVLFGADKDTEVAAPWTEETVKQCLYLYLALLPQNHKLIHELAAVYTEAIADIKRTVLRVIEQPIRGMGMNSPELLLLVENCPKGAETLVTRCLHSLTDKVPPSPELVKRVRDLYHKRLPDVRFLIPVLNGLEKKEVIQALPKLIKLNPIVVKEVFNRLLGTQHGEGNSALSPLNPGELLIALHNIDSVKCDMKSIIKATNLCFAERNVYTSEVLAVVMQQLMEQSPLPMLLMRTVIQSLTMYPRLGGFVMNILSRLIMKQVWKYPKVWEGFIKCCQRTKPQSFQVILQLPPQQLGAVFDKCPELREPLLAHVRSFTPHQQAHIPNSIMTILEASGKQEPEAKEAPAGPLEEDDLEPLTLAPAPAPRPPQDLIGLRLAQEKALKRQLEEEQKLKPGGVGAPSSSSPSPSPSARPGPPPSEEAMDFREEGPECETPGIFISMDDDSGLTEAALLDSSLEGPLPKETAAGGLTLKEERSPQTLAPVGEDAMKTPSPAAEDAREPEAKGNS
The experiment in a line: FLAG affinity purification from HEK 293 cells, western blot. As to the method: (§1) Affinity purification of Flag-Star-PAP and Flag-PAPα and their associated complex of proteins in parallel allowed a comparison of the complexes formed by Star-PAP and PAPα in more detail. Flag tagged Star-PAP and PAPα were purified from HEK 293 cells stably expressing Flag-Star-PAP or Flag-PAPα (following manufacturer's instructions; Sigma-Aldrich) and the presence of endogenous symplekin, CPSF¹⁰⁰, CPSF⁷³, CstF⁶⁴, RNA Pol II, Sm protein (Y12) and PIPKIα was assessed by western blotting. Like Flag-PAPα, Flag-Star-PAP associates with symplekin, CPSF¹⁰⁰ and CPSF⁷³, further confirmation that Star-PAP may function in an mRNA polyadenylation complex (FIG. 7). Also detected with both PAPs was a faster migrating form of RNA Pol II and Sm protein (Y-12), a component of the spliceosome, which is consistent with reports that the machinery for splicing and polyadenylation are coupled.

Experiment [1] addresses T2, CPSF-100 (Cleavage and Polyadenylation Specificity Factor subunit 100) (human, UniProt Q9P2I0 1-782).
T2 construct: also called SPSF-100
T2 sequence (looked up): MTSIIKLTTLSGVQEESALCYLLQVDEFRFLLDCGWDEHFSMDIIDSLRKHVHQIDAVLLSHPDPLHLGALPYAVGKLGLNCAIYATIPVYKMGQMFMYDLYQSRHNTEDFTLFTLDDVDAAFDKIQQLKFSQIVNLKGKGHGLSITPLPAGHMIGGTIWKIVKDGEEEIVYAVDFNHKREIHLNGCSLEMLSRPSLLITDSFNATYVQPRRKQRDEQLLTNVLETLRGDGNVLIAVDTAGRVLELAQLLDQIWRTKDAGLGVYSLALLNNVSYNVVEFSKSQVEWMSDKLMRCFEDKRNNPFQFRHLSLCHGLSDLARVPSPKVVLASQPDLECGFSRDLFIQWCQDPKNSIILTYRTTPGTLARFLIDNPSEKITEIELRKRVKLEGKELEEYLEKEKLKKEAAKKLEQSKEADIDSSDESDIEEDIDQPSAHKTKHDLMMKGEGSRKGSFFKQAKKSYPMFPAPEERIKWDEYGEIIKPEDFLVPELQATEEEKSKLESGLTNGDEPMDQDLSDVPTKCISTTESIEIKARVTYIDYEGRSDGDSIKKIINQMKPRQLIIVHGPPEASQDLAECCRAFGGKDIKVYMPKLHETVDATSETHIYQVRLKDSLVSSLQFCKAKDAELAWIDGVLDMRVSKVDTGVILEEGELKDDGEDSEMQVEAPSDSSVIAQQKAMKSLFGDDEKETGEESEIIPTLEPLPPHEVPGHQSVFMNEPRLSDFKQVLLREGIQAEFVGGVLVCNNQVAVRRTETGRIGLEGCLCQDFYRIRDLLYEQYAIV
The description is as above. As to the method:
as §1

The next experiment addresses T3, endogenous Star-PAP (human, UniProt Q9H6E5 1-874).
T3 sequence: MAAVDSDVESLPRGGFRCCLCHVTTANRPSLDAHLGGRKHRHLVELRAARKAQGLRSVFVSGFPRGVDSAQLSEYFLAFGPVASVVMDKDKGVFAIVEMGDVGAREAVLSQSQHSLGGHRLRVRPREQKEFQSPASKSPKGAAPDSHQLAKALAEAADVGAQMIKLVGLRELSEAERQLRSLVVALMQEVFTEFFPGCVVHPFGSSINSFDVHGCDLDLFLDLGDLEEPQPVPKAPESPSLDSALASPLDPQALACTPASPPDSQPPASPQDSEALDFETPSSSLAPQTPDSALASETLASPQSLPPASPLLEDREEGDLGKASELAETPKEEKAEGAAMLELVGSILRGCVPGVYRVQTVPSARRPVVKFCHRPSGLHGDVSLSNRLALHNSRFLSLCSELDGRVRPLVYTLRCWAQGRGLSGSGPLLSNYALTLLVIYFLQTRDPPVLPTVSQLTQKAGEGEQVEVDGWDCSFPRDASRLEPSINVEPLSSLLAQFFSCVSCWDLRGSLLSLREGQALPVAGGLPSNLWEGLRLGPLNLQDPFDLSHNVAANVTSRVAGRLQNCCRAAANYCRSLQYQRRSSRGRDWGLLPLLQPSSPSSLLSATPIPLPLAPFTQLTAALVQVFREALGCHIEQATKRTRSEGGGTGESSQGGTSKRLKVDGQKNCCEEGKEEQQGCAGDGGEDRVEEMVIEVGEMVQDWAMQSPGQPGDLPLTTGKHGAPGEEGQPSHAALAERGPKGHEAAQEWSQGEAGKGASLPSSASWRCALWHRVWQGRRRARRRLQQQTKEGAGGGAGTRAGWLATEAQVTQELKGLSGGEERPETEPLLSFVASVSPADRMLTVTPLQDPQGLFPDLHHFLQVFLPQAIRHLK
Kind of experiment: co-immunoprecipitation with antibodies against full-length Star-PAP, western blot.

For experiment [2], the target named is B2. The experiment in a line: FLAG affinity purification from HEK 293 cells, western blot. As to the method:
as §1

Experiment [3] has as its target B1. The description is as above. How it is done: as §1

For B1, in the experiment with Symplekin, the binding result is given as “binds”.
Take B2: the binding result (with Symplekin; in experiment [1]) was “binds” each time.

B3: PIPKIα (endogenous) (enzyme, human, UniProt Q99755 1-562, looked up)
chain: MASASSGPSSSVGFSSFDPAVPSCTLSSAASGIKRPMASEVLEARQDSYISLVPYASGMPIKKIGHRSVDSSGETTYKKTTSSALKGAIQLGITHTVGSLSTKPERDVLMQDFYVVESIFFPSEGSNLTPAHHYNDFRFKTYAPVAFRYFRELFGIRPDDYLYSLCSEPLIELCSSGASGSLFYVSSDDEFIIKTVQHKEAEFLQKLLPGYYMNLNQNPRTLLPKFYGLYCVQAGGKNIRIVVMNNLLPRSVKMHIKYDLKGSTYKRRASQKEREKPLPTFKDLDFLQDIPDGLFLDADMYNALCKTLQRDCLVLQSFKIMDYSLLMSIHNIDHAQREPLSSETQYSVDTRRPAPQKALYSTAMESIQGEARRGGTMETDDHMGGIPARNSKGERLLLYIGIIDILQSYRFVKKLEHSWKALVHDGDTVSVHRPGFYAERFQRFMCNTVFKKIPLKPSPSKKFRSGSSFSRRAGSSGNSCITYQPSVSGEHKAQVTTKAEVEPGVHLGRPDVLPQTPPLEEISEGSPIPDPSFSPLVGETLQMLTTSTTLEKLEVAESEFTH
notes: Detected by western blot in immunoprecipitates and FLAG-purified complexes; also called type I phosphatidylinositol phosphate kinase alpha; PIP kinase
For the molecule B3, the binding result is recorded as “binds” with endogenous Star-PAP, “no binding” in experiment [2] and “binds” in experiment [3].
